# Experimental data from IntAct's records for PubMed 31515488.
# B1: U3 small nucleolar RNA-associated protein 14 homolog C (Homo sapiens), Q5TAP6 (parent)
# chain: MNVNQVAENLALSHQEELVDLPKNYPLSENEDEGDSDGERKHQKLLEAIISLDGKNRRKLAERSEASLKVSEFSVSSEGSGEKLGLADLLEPVKTSSSLATVKKQLNRVKSKKVVELPLNKEKIEQIHREVAFSKTSQVLSKWDPIILKNQQAEQLVFPLGKEQPAIAPIEHALSGWKARTPLEQEIFNLLHKNKQPVTDPLLTPMEKASLQAMSLEEAKMHRAELQRARALQSYYEAKARKEKKIKSKKYHKVVKKGKAKKALKEFEQLQKVNPTVALEEMEKIENARMMERMSLKHQNSGKWAKSKAIMAKYDLEARQAMQEQLAKNKELTQKLQVASESEEEEGGTEVEELLVPHVANEVQMNVDGPNPWMFRSCTSDTKEAATQEDPEQVPELAAHEVSASEAEERPVAEEEILLREFEERQSLRKRSELNQDAEPASSQETKDSSSQEVLSELRALSQKLKEKHQSRKQKASSEGTVPQVQREEPAPEEAEPLLLQRSERVQTLEELEELGKEDCFQNKELPRPVLEGQQSERTPNNRPDAPKEKKEKEQLINLQNFLTTQSPSVRSLAVPTIIEELEDEEERDQRQMIKEAFAGDDVIRDFLKEKREAVEASKPKDVDLTLPGWGEWGGVGLKPSAKKRRQFLIKAPEGPPRKDKNLPNVIISEKRNIHAAAHQVQVLPYPFTHHRQFERTIQTPIGSTWNTQRAFQKLTTPKVVTKPGHIIKPIKAEDVGYQSSSRSDLPVIQRNPKRITTRHNKEEKL
# B2: Protein FAM9B (Homo sapiens), Q8IZU0 (parent)
# chain: MAAWGKKHAGKDPVRDECEERNRFTETREEDVTDEHGEREPFAETDEHTGANTKKPEDTAEDLTAKRKRMKMDKTCSKTKNKSKHALRKKQLKRQKRDYIHSLKLLNVLEEYITDEQKEEEEEEGEEEELIRIFQEQQKKWQQYRSVRRERLKEMKLLRDQFVKALEDFEDLCDRVFSDEDSELDN
# partner: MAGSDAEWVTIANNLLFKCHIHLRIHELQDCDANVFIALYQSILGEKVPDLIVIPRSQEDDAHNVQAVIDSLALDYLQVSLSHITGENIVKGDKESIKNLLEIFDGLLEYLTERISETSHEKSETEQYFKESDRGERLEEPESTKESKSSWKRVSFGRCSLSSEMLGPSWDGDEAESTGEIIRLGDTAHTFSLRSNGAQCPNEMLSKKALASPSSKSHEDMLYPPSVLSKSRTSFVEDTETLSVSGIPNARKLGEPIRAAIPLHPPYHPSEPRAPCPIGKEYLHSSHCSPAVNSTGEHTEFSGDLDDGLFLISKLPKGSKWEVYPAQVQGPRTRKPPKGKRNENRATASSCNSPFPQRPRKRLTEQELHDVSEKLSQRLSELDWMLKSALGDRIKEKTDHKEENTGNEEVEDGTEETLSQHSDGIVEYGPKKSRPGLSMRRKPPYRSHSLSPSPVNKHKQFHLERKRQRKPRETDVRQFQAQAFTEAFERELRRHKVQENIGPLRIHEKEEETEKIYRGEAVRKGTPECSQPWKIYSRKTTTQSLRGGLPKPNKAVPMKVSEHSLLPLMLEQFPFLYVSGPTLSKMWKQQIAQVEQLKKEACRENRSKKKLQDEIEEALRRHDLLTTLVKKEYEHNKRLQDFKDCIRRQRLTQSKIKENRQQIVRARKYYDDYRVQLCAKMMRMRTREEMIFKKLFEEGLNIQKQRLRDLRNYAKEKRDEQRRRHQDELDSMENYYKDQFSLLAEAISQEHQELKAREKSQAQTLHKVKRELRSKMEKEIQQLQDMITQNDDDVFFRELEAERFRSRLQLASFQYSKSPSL
# B3: Hypoxia-inducible factor 1-alpha inhibitor (Homo sapiens), Q9NWT6 (parent)
# chain: MAATAAEAVASGSGEPREEAGALGPAWDESQLRSYSFPTRPIPRLSQSDPRAEELIENEEPVVLTDTNLVYPALKWDLEYLQENIGNGDFSVYSASTHKFLYYDEKKMANFQNFKPRSNREEMKFHEFVEKLQDIQQRGGEERLYLQQTLNDTVGRKIVMDFLGFNWNWINKQQGKRGWGQLTSNLLLIGMEGNVTPAHYDEQQNFFAQIKGYKRCILFPPDQFECLYPYPVHHPCDRQSQVDFDNPDYERFPNFQNVVGYETVVGPGDVLYIPMYWWHHIESLLNGGITITVNFWYKGAPTPKRIEYPLKAHQKVAIMRNIEKMLGEALGNPQEVGPLLNTMIKGRYN
# partner: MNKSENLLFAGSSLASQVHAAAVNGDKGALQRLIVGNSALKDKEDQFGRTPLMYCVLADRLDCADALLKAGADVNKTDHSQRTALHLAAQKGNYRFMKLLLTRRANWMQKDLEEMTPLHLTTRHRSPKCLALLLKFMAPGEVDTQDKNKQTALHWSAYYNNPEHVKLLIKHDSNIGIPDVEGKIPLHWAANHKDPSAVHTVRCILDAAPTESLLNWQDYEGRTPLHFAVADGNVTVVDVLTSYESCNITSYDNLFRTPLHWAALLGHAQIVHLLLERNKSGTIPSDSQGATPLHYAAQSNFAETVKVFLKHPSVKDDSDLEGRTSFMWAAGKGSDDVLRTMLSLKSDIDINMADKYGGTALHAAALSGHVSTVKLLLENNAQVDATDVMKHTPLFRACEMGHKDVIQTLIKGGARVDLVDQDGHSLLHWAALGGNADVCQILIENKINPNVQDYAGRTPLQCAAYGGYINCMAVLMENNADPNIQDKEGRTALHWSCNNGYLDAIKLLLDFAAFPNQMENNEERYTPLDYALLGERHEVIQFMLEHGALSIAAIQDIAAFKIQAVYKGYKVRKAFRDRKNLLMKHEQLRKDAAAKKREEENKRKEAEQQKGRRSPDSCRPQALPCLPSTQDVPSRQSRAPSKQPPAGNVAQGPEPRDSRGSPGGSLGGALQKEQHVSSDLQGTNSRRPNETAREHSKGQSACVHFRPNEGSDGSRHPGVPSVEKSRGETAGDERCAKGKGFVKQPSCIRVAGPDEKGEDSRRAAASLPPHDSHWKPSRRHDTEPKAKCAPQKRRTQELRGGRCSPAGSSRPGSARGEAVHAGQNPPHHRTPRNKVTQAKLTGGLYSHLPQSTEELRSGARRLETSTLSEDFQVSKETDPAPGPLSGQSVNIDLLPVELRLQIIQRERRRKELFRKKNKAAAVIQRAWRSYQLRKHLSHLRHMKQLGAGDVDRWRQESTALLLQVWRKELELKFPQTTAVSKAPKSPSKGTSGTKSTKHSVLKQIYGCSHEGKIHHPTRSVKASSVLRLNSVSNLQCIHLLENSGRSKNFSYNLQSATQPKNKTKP
# B4: G2/M phase-specific E3 ubiquitin-protein ligase (Homo sapiens), Q7L622 (parent)
# chain: MNESKPGDSQNLACVFCRKHDDCPNKYGEKKTKEKWNLTVHYYCLLMSSGIWQRGKEEEGVYGFLIEDIRKEVNRASKLKCCVCKKNGASIGCVAPRCKRSYHFPCGLQRECIFQFTGNFASFCWDHRPVQIITSNNYRESLPCTICLEFIEPIPSYNILRSPCCKNAWFHRDCLQVQAINAGVFFFRCTICNNSDIFQKEMLRMGIHIPEKDASWELEENAYQELLQHYERCDVRRCRCKEGRDYNAPDSKWEIKRCQCCGSSGTHLACSSLRSWEQNWECLECRGIIYNSGEFQKAKKHVLPNSNNVGITDCLLEESSPKLPRQSPGSQSKDLLRQGSKFRRNVSTLLIELGFQIKKKTKRLYINKANIWNSALDAFRNRNFNPSYAIEVAYVIENDNFGSEHPGSKQEFLSLLMQHLENSSLFEGSLSKNLSLNSQALKENLYYEAGKMLAISLVHGGPSPGFFSKTLFNCLVYGPENTQPILDDVSDFDVAQIIIRINTATTVADLKSIINECYNYLELIGCLRLITTLSDKYMLVKDILGYHVIQRVHTPFESFKQGLKTLGVLEKIQAYPEAFCSILCHKPESLSAKILSELFTVHTLPDVKALGFWNSYLQAVEDGKSTTTMEDILIFATGCSSIPPAGFKPTPSIECLHVDFPVGNKCNNCLAIPITNTYKEFQENMDFTIRNTLRLEKEESSHYIGH
# partner: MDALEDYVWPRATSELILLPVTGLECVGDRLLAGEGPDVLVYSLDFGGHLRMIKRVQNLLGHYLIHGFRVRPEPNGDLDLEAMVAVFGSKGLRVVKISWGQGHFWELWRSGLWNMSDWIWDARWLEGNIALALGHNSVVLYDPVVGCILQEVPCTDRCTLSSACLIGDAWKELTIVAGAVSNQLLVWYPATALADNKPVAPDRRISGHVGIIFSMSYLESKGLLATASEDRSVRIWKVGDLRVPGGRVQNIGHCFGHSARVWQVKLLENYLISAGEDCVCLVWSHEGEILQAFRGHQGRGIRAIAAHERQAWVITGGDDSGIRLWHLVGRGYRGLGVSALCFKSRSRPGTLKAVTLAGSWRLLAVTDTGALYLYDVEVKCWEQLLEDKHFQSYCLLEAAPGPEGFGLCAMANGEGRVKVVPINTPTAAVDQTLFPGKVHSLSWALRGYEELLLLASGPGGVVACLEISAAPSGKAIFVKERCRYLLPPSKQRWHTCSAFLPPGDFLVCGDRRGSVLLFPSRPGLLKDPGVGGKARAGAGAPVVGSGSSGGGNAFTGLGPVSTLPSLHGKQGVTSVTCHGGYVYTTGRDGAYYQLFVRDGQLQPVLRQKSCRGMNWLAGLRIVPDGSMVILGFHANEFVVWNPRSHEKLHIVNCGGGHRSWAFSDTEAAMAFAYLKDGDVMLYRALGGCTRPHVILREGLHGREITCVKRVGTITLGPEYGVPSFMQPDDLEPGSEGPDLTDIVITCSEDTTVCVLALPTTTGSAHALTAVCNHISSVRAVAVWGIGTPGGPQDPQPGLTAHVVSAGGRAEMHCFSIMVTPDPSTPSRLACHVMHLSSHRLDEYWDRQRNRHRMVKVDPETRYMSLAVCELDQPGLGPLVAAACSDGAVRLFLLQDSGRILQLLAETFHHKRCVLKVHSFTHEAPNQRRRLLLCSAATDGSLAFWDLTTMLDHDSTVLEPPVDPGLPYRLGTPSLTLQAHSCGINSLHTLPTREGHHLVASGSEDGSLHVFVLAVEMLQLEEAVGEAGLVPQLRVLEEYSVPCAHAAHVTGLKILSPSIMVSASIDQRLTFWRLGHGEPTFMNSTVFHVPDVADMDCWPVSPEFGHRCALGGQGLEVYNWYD
# Variants of: B1
# Conditions: with myome_human PDE4DIP
row,effect of a mutation on the interaction,Variant
1,with no effect,K247E
2,with no effect,I170V

# Variants of: B2
# Conditions: with cep95_human CEP95, Q96GE4
row,effect of a mutation on the interaction,Variant
1,with no effect,R23H

# Variants of: B3
# Conditions: with invs_human INVS
row,effect of a mutation on the interaction,Variant
1,with no effect,P41A

# Variants of: B4
# Conditions: with wdr6_human WDR6, Q9NNW5
row,effect of a mutation on the interaction,Variant
1,with no effect,P328L
